Measured values reported in article PMC9127447.

Biological target: dynamin 2-K562E (baculovirus) (rat)
Experiment: not stated; polymerization of recombinant (baculovirus) dynamin 2 with or without Bis-T-23; method in Supplementary Figures S2E, F

dynamin 2-K562E (baculovirus) (enzyme) was tested, and the fold increase of polymerization with Bis-T-23 against without Bis-T-23 was 3.5 times.
